System: MS2 coat protein
Assay: apparent KD of MS2 coat protein; designed switch direction (-1 OFF switch, 1 ON switch): -1; higher = weaker reporter binding
Outline: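 On Illumina chips, designed RNA switches with common flanks were made by stalled E. coli RNA polymerase. Titrations with SNAP-549-labelled MS2 coat protein, doubling from 0.7 or 1.5 nM to 3 µM, were done with no input, with 200 uM small-molecule ligand, or with an oligonucleotide input. Apparent KD is the median per design over clusters, from curve fits of normalised cluster fluorescence.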

[1] = Eterna round: R95, input ligand: microRNA oligo, concentration not stated
[2] = input ligand: microRNA oligo, concentration not stated
[3] = Eterna round: R95, input ligand: FMN 200 uM
[4] = Eterna round: R95, input ligand: none

Row | Sequence | apparent KD of MS2 coat protein (input ligand: FMN 200 uM) | apparent KD of MS2 coat protein (input ligand: none) | apparent KD of MS2 coat protein [1] | also measured
1 | GAUUAACAUGAGGAUCACCCAUGUGAGGAUAUGGACUUGCCCACUUAACCAUUAGAGUCUAGAAGGCGCAUCUC [1986#28] (Eterna round: R97, puzzle: Exclusion 1) | 27.1 nM | 22.7 nM | – | –
2 | GAGAACUGAGGAUAUACAUGAGGAUCACCCAUGUUAAGAAGAUAGUAUUGAUGGUUCUGUAGAAGGCAGAGAGA [JR_Ex3_Sub066] (Eterna round: R97, puzzle: Exclusion 3) | 34.5 nM | 30.8 nM | – | –
3 | GGGCCCGGAGGAUAUACAUGAGGAUCACCCAUGUAGGGCCCGGGUAUUCCCGGGCCCUGUAGAAGGUUGGGCCC [-44, -41.2 kcal, A 19%, 0,5c] (Eterna round: R97, puzzle: Exclusion 3) | 17.8 nM | 15.8 nM | – | –
4 | CGUGCGUAUGUGAGGAUAUGCUGGUCCUUGGAUCGGCAGAAGGCACAUGAGGAUCACCCAUGUGGUGUCGUUCU [salish99_Bmod_ex4_092] (puzzle: Brourd's mod of Exclusion 4) | – | – | 129 nM | –
5 | CAGACACAUGAGGAUCACCCAUGUGAGGAUAUGCGUACGUUGUCCGUAGGCGACGUGCGCAGAAGGCGCAUUGG [JL-ex1-3.12 Eli mod] (puzzle: Exclusion 1) | – | – | 90.3 nM | –
6 | GAUCCUUCUGUUAGGAUAUGCAACGGGCUUCCGCAGCAGAAGGAACAUGAGGAUCACCCAUGUCAAAUAAAAUC [JL-BMX4-4.36 ViennaUCT mod] (Eterna round: R97, puzzle: Brourd's mod of Exclusion 4) | 54.1 nM | 18.7 nM | – | –
7 | UUCUUUGUUGUGAGGAUAUCGUAUUCUUUUUGUUACGAGAAGGCACAUGAGGAUCACCCAUGUUUCUUGAUGUU [JR_BMOE4_Sub068] (puzzle: Brourd's mod of Exclusion 4) | – | – | 16.7 nM | –
8 | GCCAUGUAAGGAUAUAACCGUCUUCAUGAACAAUGAGGAUGUUAGAAGGUACAUGAGGAUCACCCAUGUCCUUC [Eternabot (Original) Solution 6] (Eterna round: R97, puzzle: Exclusion 4) | 15.7 nM | 12.5 nM | – | –
9 | UUAUUAAGUGUGAGGAUAUGCUGGUCCUUGGAUCAGCAGAAGGCACAUGAGGAUCACCCAUGUACAUUAUUUUA [Mat - Exclusion 4 - JL Mod - D28] (puzzle: Brourd's mod of Exclusion 4) | – | – | 31.6 nM | –
10 | AAGUCCGAGCGAGGAUAUUCACCUCAGUCAGCUGAAGAAGGCGCUAAGCGGUGAUUAUUUUGUACAUGAGGAUCACCCAUGUCA [Eternabot solution 49] (Eterna round: R96, puzzle: Exclusion NG 1) | 20.7 nM | 22.6 nM | – | apparent KD of MS2 coat protein [2]: 21.2 nM
11 | AUGGCGUUAGGAUAUACUAUGGGCCUGGACAGUGCACCUCCACAUGAGGAUCACCCAUGUAGAAGGAACUCGAG [Eternabot (L2) Solution 99] (Eterna round: R97, puzzle: Exclusion 2) | 26.9 nM | 20.8 nM | – | –
12 | GAUUGAGAGCAGGAUAUCUUAGAAAUGUAUGAAAGAGAAGGGCUCACAUGAGGAUCACCCAUGUGGUCCUAGAU [JL Dibiri mod 17] (Eterna round: R96, puzzle: Exclusion 6) | 162 nM | 25.4 nM | – | apparent KD of MS2 coat protein [2]: 17.9 nM
13 | AAAACGUGAGGAUAUCCAAUAUAUGACAUGAGGAUCACCCAUGUUUCCACUCGUACCUCCGGAGAAGGCACAUUUU [Ex5 #79] (Eterna round: R97, puzzle: Exclusion 5) | 62.7 nM | 67 nM | – | –
14 | AAGAUGCGGGUAGGAUAUGGAGAGAAAGAAAGACCAGAAGGAUUGGUCACACAACAUGAGGAUCACCCAUGUGUGUGUUGCGAA [EX ng 1 6.1] (Eterna round: R96, puzzle: Exclusion NG 1) | – | – | – | apparent KD of MS2 coat protein [2]: 9.22 nM
15 | CUGAGCAGACGGAGAUCCAACAUGAGGAUCACCCAUGUCUCAAAAGCUCUUUGCUCGUCUUAUCCUCCUCUGUUCUC [Leriedor] (puzzle: Sensor v3, turn-off variant 1) | – | – | 333 nM | apparent KD of MS2 coat protein [3]: 31.5 nM; apparent KD of MS2 coat protein [4]: 30.1 nM
16 | UAGGUGUGAGGAUAUGGUAAAGAUAAGAUGAUAAAAGAACUCCAGAAGGCACAUGAGGAUCACCCAUGUAGAUG [Mat - Exclusion 4 - Mod of JL - D34] (puzzle: Exclusion 4) | – | – | 22.8 nM | apparent KD of MS2 coat protein [3]: 62.9 nM; apparent KD of MS2 coat protein [4]: 25.8 nM
17 | CCCAGUUAUGAAGGAUAUUGUACAUGAGGAUCACCCAUGUAAUAAAUGAGGAUUUCGGGUGUCUACAAGAAGGUCAGGAUAGGC [Ostracism 14 - Jieux - Exclusion NG 2] (Eterna round: R96, puzzle: Exclusion NG 2) | 82.8 nM | 60.6 nM | – | apparent KD of MS2 coat protein [2]: 43.6 nM
18 | UCUGUUCAAGGAUAUGCGUAAGGUGUUACGGCACCAGGUCUACAUGAGGAUCACCCAUGUAGAAGGUGAUCAGA [EX2 #88] (Eterna round: R97, puzzle: Exclusion 2) | 22.4 nM | 20.3 nM | – | –

Row | Sequence | apparent KD of MS2 coat protein (input ligand: FMN 200 uM) | apparent KD of MS2 coat protein (input ligand: none) | apparent KD of MS2 coat protein [1] | also measured
19 | CUGAUGUGAGGAUAUCUACGCCAUGUCUUUGACAUGGCGCAAGAGAAGGCACAUGAGGAUCACCCAUGUACUUC [jl-ex4-4.41 ViennaUCT mod] (Eterna round: R97, puzzle: Exclusion 4) | 143 nM | 27.9 nM | – | –
20 | AUAAAUAAGGAGGAUAUCGUAUCGGAAACGAUACGAGAAGGUCUAACAUGAGGAUCACCCAUGUUCCUCAAUAA [Mat - Exclusion 6 - Eli Mod - D47] (puzzle: Exclusion 6) | – | – | 34.5 nM | –
21 | GCCUCACAUGAGGAUCACCCAUGUCAGGAUAUCUAAGGCGAAGUGCAAGCACCUCGUGAGAGAAGGGACGUCAA [Dienononen] (puzzle: Exclusion 1) | – | – | 20.9 nM | –
22 | AAUAAUGAUAAGGAUAUCACUAGCUGCGGCUAGUGAGAAGGUAUCACAUGAGGAUCACCCAUGUGUUCCAAUAA [Ex6/6-A3] (Eterna round: R97, puzzle: Exclusion 6) | 33.1 nM | 14.1 nM | – | –
23 | ACAUGAGGAUCACCCAUGUCCGGUUGGUUUUCUCCGGCUGUUGAGGAUAUAGUCCGGUAUCCGCGCUAGAAGGUGAGGGUUGGC [Aenatbe mod 12] (Eterna round: R96, puzzle: Exclusion NG 3) | 212 nM | 165 nM | – | apparent KD of MS2 coat protein [2]: 125 nM
24 | CGUGACUCAGGAUAUCUAUUAUAUCACAUGAGGAUCACCCAUGUCCAGCGAAAGCUGGAGGGAGAAGGGAGUCACG [Fiskers Ex 5 - 44] (puzzle: Exclusion 5) | – | – | 136 nM | apparent KD of MS2 coat protein [3]: 52.3 nM; apparent KD of MS2 coat protein [4]: 108 nM
25 | UGAGUGCUGCGAGGAUAUACAUGAGGAUCACCCAUGUAAAAGUGUGAGGCUUUGCCUCACACUAUGUAGAAGGCGCAGUACUCU [JL ENG2 1.04] (Eterna round: R96, puzzle: Exclusion NG 2) | 17.6 nM | 13.6 nM | – | apparent KD of MS2 coat protein [2]: 10.6 nM
26 | GUAGAGUCAGGAUAUACGAGAUCGAAAGAUCGGCGAUCCAUACAUGAGGAUCACCCAUGUAGAAGGGACUCUAC [ChP 11-04-2015 #5] (puzzle: Exclusion 2) | – | – | 14.2 nM | –
27 | UCUAUGAUGCGAGGAUAUCGACCAUUCCUCUUUACAUGAGGAUCACCCAUGUUCGUACGCUACAACGAGAAGGCGCACUAAGUU [JR_ExcNG2_Sub060] (Eterna round: R96, puzzle: Exclusion NG 2) | 292 nM | 157 nM | – | apparent KD of MS2 coat protein [2]: 131 nM
28 | GGCCUACGAGGAUAUCGCUAGCGGGACAUGAGGAUCACCCAUGUGUCGGACCGCGUCAUGCGAGAAGGUGUAAUGA [Ribeceve] (puzzle: Exclusion 5) | – | – | 14.9 nM | –
29 | CCUCUGUGAGGAUAUUGGCAACACUGCACCCAAUAAAGCGCCGAGAAGGCACAUGAGGAUCACCCAUGUACGCA [Eternabot (L1) Solution 66] (Eterna round: R97, puzzle: Exclusion 4) | 22.4 nM | 18.4 nM | – | –
30 | CAUCCACAUGAGGAUCACCCAUGUCAGGAUAUCUAUCAUAGCAUCGAAAGAUGCGGGUAGAGAAGGGACAAACC [ChP Ext 10-04-2015 #9] (puzzle: Exclusion 1) | – | – | 12.4 nM | –
31 | AAAAACAGAGGAUAUGCACGCCGACCCGGGCGGGAAGUCGGACAUGAGGAUCACCCAUGUAGAAGGCUGAAAAA [Exclss2-VI] (puzzle: Exclusion 2) | – | – | 10.5 nM | apparent KD of MS2 coat protein [3]: 13.3 nM; apparent KD of MS2 coat protein [4]: 11.5 nM
32 | GUUGUUCGAGGAUAUACAUGAGGAUCACCCAUGUGUGUUGUGGGCGACGUUCGUUUAUGUAGAAGGCGGGCGGC [-27.2, -23.9 kcal, 19% A] (Eterna round: R97, puzzle: Exclusion 3) | 78.2 nM | 50.1 nM | – | –
33 | UACAUGAGGAUCACCCAUGUUUUGUCGUGUAUGGUAUUUAUCUAGGAUAUCAAUAUAUUUAUUUAUGAGAAGGAGAAUAUUAAU [JMF's solution 11] (Eterna round: R96, puzzle: Exclusion NG 3) | – | – | – | apparent KD of MS2 coat protein [2]: 28.5 nM
34 | UUUAAUCAUGUAGGAUAUGCGUGGCGAAGCUAUGCAGAAGGACAUGAGGAUCACCCAUGUUCUAGCGUCUGCGUACAGAUGCGG [13th something] (Eterna round: R96, puzzle: Exclusion NG 1) | 229 nM | 39.9 nM | – | apparent KD of MS2 coat protein [2]: 35.3 nM
35 | CUUUCGUGAGGAUAUGUGGCUUCGAAAGUGAGAUCGAGGCUACAGAAGGCACAUGAGGAUCACCCAUGUUCCUC [salish99_ex4_r4_214] (Eterna round: R97, puzzle: Exclusion 4) | 371 nM | 28.2 nM | – | –

Source: the supplement of paper PMC9170038
